Experimental data from patent US20110064740A1 (GlaxoSmithKline, published 2011).
Blank lines part the entries; values can stand above or below the binder they belong to. Ends that are not written are not given here. * marks the point of attachment. Biotin = O=C1N[C@H]2[C@H](CS[C@H]2CCCCC(=O)*)N1

Legend:
[1] = target: T1, Set (B) peptide encompassing amino acids 1-7 of the β-amyloid peptide, DAEFRHD--GSGGSGGSK-biotin; assay: SRU BIND biosensor, peptide set (B)
T1 peptide: DAEFRHDGSGGSGGSK(Biotin)

[2] = target: T2, Set (B) peptide encompassing amino acids 1-6 of the β-amyloid peptide, DAEFRH--GSGGSGGSGK-biotin; assay: SRU BIND biosensor, peptide set (B)
T2 peptide: DAEFRHGSGGSGGSGK(Biotin)

[3] = target: T3, Set (B) peptide encompassing amino acids 1-5 of the β-amyloid peptide, DAEFR--GSGGSGGSGSK-biotin; assay: SRU BIND biosensor, peptide set (B)
T3 peptide: DAEFRGSGGSGGSGSK(Biotin)

[4] = target: T4, Peptide APP1, AcNH-SEVKMDAEFRHDGSGK-biotin; assay: Biacore, peptide on streptavidin chip
T4 construct: also called APP derived peptide APP1
T4 peptide: Ac-SEVKMDAEFRHDGSGK(Biotin)
Method: (§1) In addition to the experiments described above, the Biacore™ 3000 optical biosensor was used to monitor the binding of 2E7 antibody to selected β-amyloid sequence derived peptides. Binding was measured by injecting test antibodies at up to 64 nM for 5 minute over peptides captured on separate streptavidin chip surfaces (130-230 RU (resonance units)). A running buffer (HBS-EP) containing 0.01 M HEPES pH7.4, 0.15 M NaCl, 3 mM EDTA and 0.005% Surfactant P20™ at 25° C. was used at a flow rate of 20 ul/min. All runs were double referenced against a blank streptavidin surface and blank injections. Analysis was carried out using the Biacore™ analysis software BIAevaluation™ version 4.1.
(§2) In a study similar to the epitope mapping study on 2E7 using the Surface Plasmon Resonance assay described above, H2L1 behaved similarly to 2E7 in binding to the peptide encompassing amino acids 1-12 (Aβ1, SEQ ID No:15) of the β-amyloid peptide and not to the peptide encompassing amino acids 2-13 of the β-amyloid peptide (Aβ2-13, SEQ ID No:44).

[5] = target: T5, Peptide Aβ2-13, AEFRHDSGYEVHGSGK-biotin; assay: Biacore 3000, peptide on streptavidin chip
T5 construct: The range counts on the β-amyloid peptide; also called 2-13 peptide; β-amyloid peptide 2-13
T5 peptide: Ac-AEFRHDSGYEVHGSGK(Biotin)
Method: as §1
In a separate experiment the β-amyloid 1-40 peptide was captured via its N-terminal aspartic acid residue that had been biotinylated. This peptide was captured onto a Biacore™ streptavidin coated chip as previously described. Antibody 2E7 injected at 66 nM for 1 minute could not bind this peptide. Therefore, it is concluded that the previously descibed N-terminal binding site was masked by the linker and capture method, thus further confirming the extreme N-terminus as containing the core binding site

[6] = target: T6, human beta-amyloid peptide (1-40) (human, UniProt P05067 672-711); assay: SPR Biacore 3000, Method A(ii): β-amyloid amine-coupled to CM5 chip, antibody 1-64 nM as analyte
T6 construct: domain: beta-amyloid peptide (1-40); Unlabelled peptide: amine-coupled to a CM5 chip (Method A(ii)) or in solution as analyte (Method B); also called beta-amyloid (1-40)
T6 sequence (P05067 672-711 limits assumed): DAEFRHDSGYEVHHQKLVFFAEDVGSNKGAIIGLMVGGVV
Method: (§3) (i) Briefly, <20 resonance units of beta-amyloid 1-40 peptide (biotinylated at the C-terminus) were captured on a streptavidin biosensor chip (as used for Table 10A). The antibodies were diluted down in HBS-EP buffer and passed over the streptavidin/beta-amyloid surface at concentrations ranging from 0.001 nM-8 nM (for Table 10A). Two separate runs were carried out; each run was carried out on a new streptavidin/beta-amyloid surface. Runs 1 and 2 were essentially the same though there were some differences in the parameters used; Run 1 was carried out using a chip surface on which 16 RU's of beta-amyloid were captured, and antibody concentrations of 0.001 nM-8 nM were used, an association time of 4 minutes and a dissociation time of 20 minutes were used at a flow rate of 50 μl per minute. For Run 2, less than 10 RU's of beta-amyloid were captured and antibody concentrations of 0.003125 nM-8 nM were used. The flow rate and association times were the same as Run 1, however the dissociation time was reduced to 15 minutes. (ii) Beta amyloid (1-40) and (1-42) were amine-coupled on different surfaces of a CM5 biosensor chip to a level of <20 resonance units (as used for Table 10B). The antibodies were diluted down in HBS-EP buffer and passed over the biosensor/beta-amyloid surface at concentrations ranging from 1 nM-64 nM (as used for Table 10B).
(§4) In both methods, regeneration was via a pulse of 100 mM H₃PO₄, and for Table 10A data also followed by a pulse of 50 mM NaOH. […] All runs were double referenced against buffer blank injections. Analysis was carried out using the Biacore™ analysis software BIAevaluation version 4.1.

[7] = target: T7, human beta-amyloid peptide (1-42) (human, UniProt P05067 672-713); assay: as above
T7 construct: domain: beta-amyloid peptide (1-42); Unlabelled peptide: amine-coupled to a CM5 chip (Method A(ii)) or in solution as analyte (Method B); also called beta-amyloid (1-42)
T7 sequence (P05067 672-713 limits assumed): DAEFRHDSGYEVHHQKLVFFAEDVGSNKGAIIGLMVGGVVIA
Method: as §3, §4

[8] = target: T8, human Aβ peptide (1-40) biotinylated at the C terminus (human, UniProt P05067 672-711, biotinylated at the C-terminus); assay: SPR Biacore 3000, Method A(i): C-terminally biotinylated β-amyloid 1-40 on streptavidin chip, antibody as analyte; Run 1
T8 construct: domain: β-amyloid peptide (1-40); Numbers 1-40 count on the β-amyloid peptide, not on APP; also called beta-amyloid 1-40 peptide (biotinylated at the C-terminus); streptavidin-captured beta-amyloid (1-40)
T8 sequence (P05067 672-711 limits assumed): as the sequence (P05067 672-711 limits assumed) above
Method: as §3, §4

[9] = target: T8, human Aβ peptide (1-40) biotinylated at …; assay: SPR Biacore 3000, Method A(i): C-terminally biotinylated β-amyloid 1-40 on streptavidin chip, antibody as analyte; Run 2
Method: as §3, §4

[10] = target: T8, human Aβ peptide (1-40) biotinylated at …; assay: SPR Biacore 3000, Method A(i): C-terminally biotinylated β-amyloid 1-40 on streptavidin chip, antibody as analyte; Average(SD) of two runs
Method: as §3, §4

[11] = target: T6, human beta-amyloid peptide (1-40); assay: SPR Biacore 3000, Method B: antibody captured on anti-mouse IgG surface, β-amyloid 4-500 nM as analyte; n = 3; peptide length not given
Method: (§5) In the second instance the assay was reversed, in that antibodies were first captured to a level of 1000-2500 resonance units on an anti-mouse IgG polyclonal antibody surface (for recombinant mouse 2E7 MAb) or a protein A surface (for humanized H2L1) of a CM5 biosensor chip. Freshly prepared beta-amyloid (1-40) or (1-42) was diluted down in HBS-EP buffer and passed over the captured-antibody surface at concentrations ranging from 4-500 nM (Table 10C and 10D).
as §4

[12] = target: T5, Peptide Aβ2-13, AEFRHDSGYEVHGSGK-biotin; assay: Biacore, peptide on streptavidin chip
Method: as §1, §2

[13] = target: T8, human Aβ peptide (1-40) biotinylated at …; assay: Aβ binding ELISA with culture supernatant, Aβ peptide (1-40)
[14] = target: T8, human Aβ peptide (1-40) biotinylated at …; assay: Aβ binding ELISA, human Aβ (1-40) biotinylated at the C terminus
[15] = target: T8, human Aβ peptide (1-40) biotinylated at …; assay: as above; remark: listed apart in the source
[16] = target: T8, human Aβ peptide (1-40) biotinylated at …; assay: as above; remark: listed apart in the source
[17] = target: T9, human Aβ peptide (length not stated) (human, UniProt P05067 672-711); assay: competition ELISA, β-amyloid in solution pre-incubated with the antibody; competitor: immobilised mouse 2E7; Experiment 1
T9 construct: also called β-amyloid in solution
T9 sequence (P05067 672-711): as the sequence (P05067 672-711 limits assumed) above
Method: (§6) 2) β-amyloid in solution; a constant concentration of β-amyloid was pre-incubated with a dilution series of humanised 2E7 antibody variants—the mixture including complexed and free amyloid was added for a short time to wells containing immobilised mouse 2E7 MAb. The amount of free β-amyloid that was still available for binding the immobilised parental 2E7 MAb was then detected.

[18] = target: T9, human Aβ peptide (length not stated); assay: competition ELISA, β-amyloid in solution pre-incubated with the antibody; competitor: immobilised mouse 2E7; Experiment 2
Method: as §6

[19] = target: T8, human Aβ peptide (1-40) biotinylated at …; assay: competition ELISA, biotinylated human Aβ (1-40) on streptavidin plate; competitor: mouse 2E7 at constant concentration; Experiment 1
Method: (§7) Two types of competition ELISA were established in order to compare the Aβ binding activity of the three humanised variants compared to the 2E7 chimeric antibody. 1) Immobilised β-amyloid; biotinylated human Aβ peptide (1-40) was immobilized through Streptavidin on ELISA plates Mouse 2E7 antibody was added at a constant concentration along with a dilution series of 2E7-derived humanised variant antibodies. Bound mouse 2E7 MAb was then detected with anti-mouse IgG conjugate.

[20] = target: T8, human Aβ peptide (1-40) biotinylated at …; assay: competition ELISA, biotinylated human Aβ (1-40) on streptavidin plate; competitor: mouse 2E7 at constant concentration; Experiment 2
Method: as §7

[21] = target: T6, human beta-amyloid peptide (1-40); assay: SPR Biacore 3000, Method B: antibody captured on protein A surface, β-amyloid 4-500 nM as analyte; n = 3; peptide length not given
Method: as §5, §4

binding result [1]: binds
binding result [2]: binds
binding result [3]: binds
binding result [4]: no binding
binding result [5]: no binding (tested: up to 64 nM)
Kd [6]: 317 pM
koff [6]: 0.000128 s⁻¹
kon [6]: 405000 M⁻¹ s⁻¹
Kd [7]: 394 pM
koff [7]: 0.000151 s⁻¹
kon [7]: 382000 M⁻¹ s⁻¹
Kd [8]: 38.3 pM
Kd [9]: 33.8 pM
Kd [10]: 36.1 pM
Kd [11]: 1580 pM
koff [11]: 0.000428 s⁻¹
kon [11]: 283000 M⁻¹ s⁻¹
B1: Mouse monoclonal antibody 2E7 (antibody, mouse IgG2a, V domains shown)
VH: EVKLVESGGGLVQPGGSLKLSCAVSGFTFSDNGMAWVRQAPRKGPEWIAFISNLAYSIDYADTVTGRFTISRDNAKNTLYLEMSSLRSEDTAMYYCVSGTWFAYWGQGTLVTVSA
VL: DVVLTQTPLSLPVSLGDQASISCRVSQSLLHSNGYTYLHWYLQKPGQSPKLLIYKVSNRFSGVPDRFSGSGSGTDFTLKISRVEAEDLGVYFCSQTRHVPYTFGGGTKLEIK
notes: Murine IgG2a heavy chain, murine kappa light chain; also called 2E7 MAb; parental mouse 2E7 MAb

binding result [12]: no binding
EC50 [13]: 0.113 µg/mL
EC50 [14]: 0.048 µg/mL
EC50 [15]: 0.044 µg/mL
EC50 [16]: 0.041 µg/mL
Kd [6]: 366 pM
koff [6]: 0.000122 s⁻¹
kon [6]: 333000 M⁻¹ s⁻¹
Kd [7]: 456 pM
koff [7]: 0.000155 s⁻¹
kon [7]: 340000 M⁻¹ s⁻¹
Kd [8]: 58.1 pM
Kd [9]: 49.8 pM
IC50 [17]: 0.075 µg/mL
IC50 [18]: 0.119 µg/mL
IC50 [19]: 1.28 µg/mL
IC50 [20]: 1.66 µg/mL
Kd [10]: 54 pM
Kd [21]: 7320 pM
koff [21]: 0.00075 s⁻¹
kon [21]: 106000 M⁻¹ s⁻¹
B2: Humanised 2E7 variant H2L1 (antibody, human IgG1, kappa, V domains shown)
VH: EVQLVESGGGLVQPGGSLRLSCAVSGFTFSDNGMAWVRQAPGKGLEWVSFISNLAYSIDYADTVTGRFTISRDNAKNSLYLQMNSLRAEDTAVYYCVSGTWFAYWGQGTLVTVSS
VL: DIVMTQSPLSLPVTPGEPASISCRVSQSLLHSNGYTYLHWYLQKPGQSPQLLIYKVSNRFSGVPDRFSGSGSGTDFTLKISRVEAEDVGVYYCSQTRHVPYTFGGGTKVEIKR
notes: Human IgG1 with L235A and G237A, human kappa; also called L1+H2; H2L1 whole IgG
